Source: the supplement of paper PMC9942255
Where “and” joins values, the source holds several entries; their conditions need not be identical. Identical values can stand only once.

System: Bacillus subtilis DB104 (SP-AmyQ fusion secretion)
Experiment: AmyQ secretion efficiency, weighted average sort bin (1 = best secretion, 10 = worst) (bin number (weighted average, 1-10)); higher = lower secretion efficiency
Method in brief: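 The secretion score was taken as the read-frequency-weighted mean bin number, normalised to beads per bin, with low-abundance sequences excluded. Bins came from large-particle flow cytometry sorting of occupied alginate beads (~65 nL, about 0.3 cells each, with fluorescein-starch) into 10 equally populated groups by green/red fluorescence ratio after about 13 h at room temperature and nile red staining. The cells were a B. subtilis DB104 library with mature AmyQ fused to designed signal peptides, integrated at amyE, and each bin's amplicons were Illumina-sequenced.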

Row | Sequence | AmyQ secretion efficiency
1 | MTKKTKNRLISSVLSTVVISSLLFPGAAGASSK | 1.56
2 | MTKKTSIILITSAWFLPLVCVLLISGWLAPAASASAQTT | 2.35
3 | MTKKYWQSPYYCRLLISGWLAPAASASAQTT | 8.15
4 | MTKLKMLSMGKRRTASLFIFSSQALAVQY | 7.8
5 | MTKLKMLSMLRKKKRRLFIFSSQALAVQY | 6.63
6 | MTKLKMLSMLRRKKASLFIFSSQALAVQY | 6.44
7 | MTKLKMLSMLTVMIASLFIFSKKRRRKALAVQY | 7.47
8 | MTKLKMLSMLTVMIASLFIFSKRRALAVQY | 6.11
9 | MTKLKMLSMLTVMIASLFIFSSQALAKRK | 4.03
10 | MTKLKMLSMLTVMIASLFIFSSQALDVQY | 6.18
11 | MTKLKMLSMLTVMIASLFIFSSQALFVQY | 7.31
12 | MTKLKMLSMLTVMIASLFIFSSQALGVQY | 3.68
13 | MTKLKMLSMLTVMIASLFIFSSQALLVQY | 6.07
14 | MTKLKMLSMLTVMIASLFIFSSQALMVQY | 5.71
15 | MTKLKMLSMLTVMIASLFIFSSQALSVQY | 2.56
16 | MTKLKMLSMLTVMIASLFIFSSQALVVQY | 5.36
17 | MTKLKMLSMLTVMIASLFIFSSQCLAVQY | 2.27
18 | MTKLKMLSMLTVMIASLFIFSSQGLAVQY | 2.52
19 | MTKLKMLSMLTVMIASLFIFSSQILAVQY | 6.11
20 | MTKLKMLSMLTVMIASLFIFSSQMLAVQY | 4.6
21 | MTKLKMLSMLTVMIASLFIFSSQQLAVQY | 6.53

Row | Sequence | AmyQ secretion efficiency
22 | MTKLKMLSMLTVMIASLFIFSSQTLAVQY | 2.28
23 | MTKLKMLSMRSRMIASLFIFSSQALAVQY | 3.8
24 | MTKRGIQAFAGGIILATAVLAAVFKKTKKDQAAAV | 7.92
25 | MTKRGIQAFAGGIILATAVLAAVFRLTTFDQAAAV | 5.37
26 | MTKRGIQAFAGGIILATAVLAAVFYLTDEDQAAAD | 6.91
27 | MTKRGIQAFAGGIILATAVLAAVFYLTDEDQAAAR | 4.37
28 | MTKRGIQAFAGGIILATAVLAAVFYLTDEDQAAAV | 5.97 and 6.45
29 | MTKRGIQAFAGGIILATYLTDEDQAAAV | 7.21
30 | MTKRGIQAFAGGIYLTDEDQAAAV | 7.17
31 | MTKRITYSLLALLAVVAFAFTDSSKAKAAEA | 2.05
32 | MTKRLSTTLTFLGIQAFAGGIILATAVLAAVFYLTDEDQAAAV | 6.23
33 | MTKRYGQTKTYKGTTTTAVLAAVFYLTDEDQAAAV | 6.8
34 | MTKTIFAFLTGLMMFGTITAASASPD | 3.99
35 | MTKVMLATALFLGLTPAGANAADL | 5.8
36 | MTKWIVLFLVLIAAAISIFVYVSTGSEK | 2.48
37 | MTKYTVIASILLSFLSVLSGGHHESKAFPV | 6.55
38 | MTLALRVSALTPSTTLAITAKAKEL | 7.08
39 | MTLGGSVSMFLVALTMCGGLFVTPAKAVKT | 3.81
40 | MTLSVIIAGVLTVAAAAMTAKMYATAKGN | 6.67
41 | MTLTSGFLLLSCLALSTVFVATTIANAPTH | 5.02
42 | MTLWMTSTLLVVLFTIVTFGLVSPPAALMADKP | 5.58

Row | Sequence | AmyQ secretion efficiency
43 | MTMKLKWLSFLLGFIILLFLFKYQFSNNDS | 7.21
44 | MTMLLAAGIIGLLTVSIASPSFAAEK | 5.35
45 | MTMLRKIIGWILLLCIIASFIVTPLFAFTVIASGKEV | 7.88
46 | MTMLRKIIGWILLLCIIATPLFAFTVIASGKEV | 5.08
47 | MTMLRKIIGWILLLCIIDDDEEDVIASGKEV | 5.3
48 | MTMLRKIIGWILLLCIIDDEAFTVIASGKEV | 5.2
49 | MTMLRKIIGWILLLCIIKKKAFTVIASGKEV | 7.58
50 | MTMLRKIIGWILLLCIIKKRRRRVIASGKEV | 7.19
51 | MTMLRKIIGWILLLCIIPEFAFTVIASGKEV | 5.32
52 | MTMLRKIIGWILLLCIIPLFAFTVIASAKEV | 4.98
53 | MTMLRKIIGWILLLCIIPLFAFTVIASCKEV | 8.74
54 | MTMLRKIIGWILLLCIIPLFAFTVIASDKEV | 7.16
55 | MTMLRKIIGWILLLCIIPLFAFTVIASFKEV | 6.97
56 | MTMLRKIIGWILLLCIIPLFAFTVIASGAED | 6.01
57 | MTMLRKIIGWILLLCIIPLFAFTVIASGAPV | 6.61
58 | MTMLRKIIGWILLLCIIPLFAFTVIASGASK | 7.69
59 | MTMLRKIIGWILLLCIIPLFAFTVIASGATD | 6.31
60 | MTMLRKIIGWILLLCIIPLFAFTVIASLKEV | 3.47
61 | MTMLRKIIGWILLLCIIPLFAFTVIASNKEV | 5.99
62 | MTMLRKIIGWILLLCIIPLFAFTVIASPKEV | 7.22
